Data on two proteins can be found in publication doi:10.1101/2021.11.29.470395 (bioRxiv, 2021).

Data set [1] deals with the molecule itself. The experiment in a line: right angle light scattering at 350 nm.
Data set [2] concerns the molecule itself. The experiment in a line: right angle light scattering at 350 nm; full-length SaFtsZf (49 µM) or EcFtsZ (25 µM), 1 mM GTP with or without BeF3-, 10 mM MgCl2; MES assembly buffer, 25 °C.

B1: full-length FtsZ from methicillin-resistant S. aureus Mu50/ATCC 700699 (natural protein)
chain: MLEFEQGFNHLATLKVIGVGGGGNNAVNRMIDHGMNNVEFIAINTDGQALNLSKAESKIQIGEKLTRGLGAGANPEIGKKAAEESREQIEDAIQGADMVFVTSGMGGGTGTGAAPVVAKIAKEMGALTVGVVTRPFSFEGRKRQTQAAAGVEAMKAAVDTLIVIPNDRLLDIVDKSTPMMEAFKEADNVLRQGVQGISDLIAVSGEVNLDFADVKTIMSNQGSALMGIGVSSGENRAVEAAKKAISSPLLETSIVGAQGVLMNITGGESLSLFEAQEAADIVQDAADEDVNMIFGTVINPELQDEIVVTVIATGFDDKPTSHGRKSGSTGFGTSVNTSSNATSKDESFTSNSSNAQATDSVSERTHTTKEDDIPSFIRNREERRSRRTRR
As to B1, the binding result in data set [1] is recorded as “binds”.

B2: full-length FtsZ from E. coli (natural protein, Escherichia coli, UniProt P0A9A6 1-383, looked up)
chain: MFEPMELTNDAVIKVIGVGGGGGNAVEHMVRERIEGVEFFAVNTDAQALRKTAVGQTIQIGSGITKGLGAGANPEVGRNAADEDRDALRAALEGADMVFIAAGMGGGTGTGAAPVVAEVAKDLGILTVAVVTKPFNFEGKKRMAFAEQGITELSKHVDSLITIPNDKLLKVLGRGISLLDAFGAANDVLKGAVQGIAELITRPGLMNVDFADVRTVMSEMGYAMMGSGVASGEDRAEEAAEMAISSPLLEDIDLSGARGVLVNITAGFDLRLDEFETVGNTIRAFASDNATVVIGTSLDPDMNDELRVTVVATGIGMDKRPEITLVTNKQVQQPVMDRYQQHGMAPLTQEQKPVAKVVNDNAPQTAKEPDYLDIPAFLRKQAD
notes: FtsZ of Escherichia coli, full length, wild type protein; also called EcFtsZ; source: purified as described [48]
For B2, in data set [2], the binding result was “binds”.
